± gives the standard error. For some of these results: Variants at the floor of the assay were thinned out.
B1: glmS ribozyme (parent)
chain: AUAAAAGCGCCAGAACUACAGAAAUGUAGUUGACGAGGAGGAGGUUUAUCGAAUUUUCGGCGGAUGCCUCCAAA

Experiments:
Settings in all cases: with glucosamine-6-phosphate
glucosamine-6-phosphate [1] = variants of: B1; assay: kcat; higher = faster cleavage; RNA array
Method in brief: (§1)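 On sequenced MiSeq chips, barcoded ribozyme variants were made in situ by E. coli RNA polymerase and followed at 37 °C through a hybridised Cy3 probe. Glucosamine-6-phosphate was flowed in at 40 μM to 10 mM in HEPES/KCl/Mg(OAc)2 buffer. Exponential fits to normalised per-tile medians gave kobs, and weighted Michaelis–Menten fits gave kcat and KM.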

glucosamine-6-phosphate [2] = variants of: B1; assay: KM; higher = weaker cofactor use; RNA array
Method in brief: as §1

glucosamine-6-phosphate [3] = variants of: B1; assay: self-cleavage kobs at 640 uM GlcN6P; higher = faster cleavage; RNA array
Method in brief: as §1

glucosamine-6-phosphate [4] = variants of: B1; assay: self-cleavage kobs at 2500 uM GlcN6P; higher = faster cleavage; RNA array
Method in brief: as §1

glucosamine-6-phosphate [5] = variants of: B1; assay: self-cleavage kobs at 10000 uM GlcN6P; higher = faster cleavage; RNA array
Method in brief: as §1

glucosamine-6-phosphate [6] = variants of: B1; assay: self-cleavage kobs at 40 uM GlcN6P; higher = faster cleavage; RNA array
Method in brief: as §1

glucosamine-6-phosphate [7] = variants of: B1; assay: self-cleavage kobs at 160 uM GlcN6P; higher = faster cleavage; RNA array
Method in brief: as §1

| Variant | kcat (glucosamine-6-phosphate [1]) [s⁻¹] | KM (glucosamine-6-phosphate [2]) [µM] | self-cleavage kobs at 640 uM GlcN6P (glucosamine-6-phosphate [3]) [s⁻¹] | self-cleavage kobs at 2500 uM GlcN6P (glucosamine-6-phosphate [4]) [s⁻¹] | self-cleavage kobs at 10000 uM GlcN6P (glucosamine-6-phosphate [5]) [s⁻¹] | self-cleavage kobs at 40 uM GlcN6P (glucosamine-6-phosphate [6]) [s⁻¹] | self-cleavage kobs at 160 uM GlcN6P (glucosamine-6-phosphate [7]) [s⁻¹] |
| --- | --- | --- | --- | --- | --- | --- | --- |
| A6U A14U | 4.98e-05 ± 1.9e-06 | 310 ± 92 | 3.6e-05 ± 1.2e-05 | 4.51e-05 ± 1.4e-05 | 4.79e-05 ± 6.3e-06 | – | – |
| G32C C71G | 1.39e-05 ± 7.5e-07 | 86.6 ± 35 | – | – | – | – | – |
| G59C C68G | 2.78e-05 ± 1e-05 | – | – | – | – | – | – |
| A12U C71U | 0.0948 ± 0.017 | 1790 ± 350 | 0.0214 ± 0.0049 | 0.0611 ± 0.02 | 0.0826 ± 0.025 | 0.00207 ± 0.00018 | 0.00891 ± 0.0017 |
| G13U C71A | 0.000178 ± 1.7e-05 | 1130 ± 300 | 5.95e-05 ± 1.2e-05 | 0.000151 ± 2.5e-05 | 0.000154 ± 1.8e-05 | – | – |
| A14G A33C | 0.000125 ± 5.4e-06 | 1470 ± 220 | 3.41e-05 ± 1.4e-05 | 8.25e-05 ± 1.2e-05 | 0.000108 ± 1.2e-05 | – | – |
| A15U A39G C71G | 0.000145 ± 6.1e-05 | – | 0.000116 ± 3.5e-05 | 9.89e-05 ± 3.7e-05 | 0.000288 ± 0.0001 | – | – |
| A14U G62A C70G | 5.52e-05 ± 1.4e-05 | – | 5.47e-05 ± 2e-05 | – | – | – | – |
| A53C G66U | 0.000484 ± 6.4e-05 | 1770 ± 450 | 0.000128 ± 3.6e-05 | 0.000344 ± 8.3e-05 | 0.00039 ± 7.6e-05 | – | 3.36e-05 ± 1.5e-05 |
| C68A C71U | 1.62e-05 ± 4.6e-06 | – | – | 2.17e-05 ± 9.8e-06 | – | – | – |
| U47C C70A | 0.000334 ± 9.1e-05 | – | 0.000119 ± 2.1e-05 | 0.000426 ± 9.7e-05 | 0.000264 ± 4.8e-05 | – | – |
| G13A U56C | 0.000422 ± 7.9e-06 | – | – | 8.37e-05 ± 2e-05 | 0.00021 ± 3.7e-05 | – | – |
| U45C C71U | 0.00401 ± 0.00038 | 2470 ± 340 | 0.000828 ± 0.00012 | 0.00167 ± 0.00031 | 0.00338 ± 0.00033 | 6.69e-05 ± 7.5e-06 | 0.000236 ± 5.8e-05 |
| C67U C70U | 0.000418 ± 1.7e-05 | 1370 ± 110 | 0.000132 ± 9.5e-06 | 0.000264 ± 2e-05 | 0.000377 ± 3e-05 | – | 4.68e-05 ± 6.2e-06 |
| G35C G40U | < 1e-05 | – | < 1e-05 | < 1e-05 | < 1e-05 | < 1e-05 | – |
| G32A C67U | 0.000858 ± 0.0002 | 1940 ± 760 | 0.00023 ± 2.1e-05 | 0.000374 ± 4.7e-05 | 0.000854 ± 8.5e-05 | – | 7.5e-05 ± 1.5e-05 |
| A52G G62A | 2.22e-05 ± 9.7e-06 | – | – | – | < 1e-05 | – | < 1e-05 |

From the supplement of paper PMC7125110
